Experiment [1] concerns the target T1, mouse MFAP4 in tissue (mouse aorta) (mouse, UniProt Q9D1H9 23-257).
T1 construct: Native protein detected by immunohistochemistry; signal absent in mfap4-/- tissue; also called mouse MFAP4 homologue
T1 sequence (looked up): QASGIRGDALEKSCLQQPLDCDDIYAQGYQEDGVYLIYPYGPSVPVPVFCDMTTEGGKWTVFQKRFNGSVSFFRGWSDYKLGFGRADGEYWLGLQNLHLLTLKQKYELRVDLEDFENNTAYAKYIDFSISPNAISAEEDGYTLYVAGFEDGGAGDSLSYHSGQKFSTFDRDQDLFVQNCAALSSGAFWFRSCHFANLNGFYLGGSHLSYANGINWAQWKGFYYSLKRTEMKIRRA
As to the kind of experiment: immunohistochemistry on mouse aorta; no signal in mfap4-/- tissue.

In experiment [2] the target is T2, human MFAP4 in tissue (human mammary artery) (human, UniProt P55083 22-255).
T2 construct: Native protein detected by immunohistochemistry
T2 sequence (looked up): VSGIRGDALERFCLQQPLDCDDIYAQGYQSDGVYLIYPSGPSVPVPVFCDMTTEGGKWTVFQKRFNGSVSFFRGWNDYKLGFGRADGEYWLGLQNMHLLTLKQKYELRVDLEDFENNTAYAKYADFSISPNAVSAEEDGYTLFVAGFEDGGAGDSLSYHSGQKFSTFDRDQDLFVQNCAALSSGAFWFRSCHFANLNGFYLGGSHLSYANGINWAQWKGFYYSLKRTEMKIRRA
Put plainly: immunohistochemistry on human mammary artery.

B1: HG-HYB 7-14 (antibody, V domains shown)
VH: EVKVVESGGGLVQPGGSLRLSCATSGFTFSDFYMEWVRQPPGKRLEWIAASRNKANDYTTEYSASVKGRFIVSRDTSQSILYLQLNALRAEDTAIYYCARNYYDSSYWYFDVWGAGTTVTVSS
VL: DIVLTQSPSYLAASPGETITINCRASKSISKYLAWYQERPGKTNKLLIYSGSTLQSGIPSRFSGSGSGTDFTLTISSLEPEDFAMYYCQQHNEYPFTFGAGTKLELK
notes: Monoclonal antibody raised in MFAP4-deficient C57BL/6N mice against rMFAP4; also called FITC-anti-MFAP4 (HG-HYB 7-14)
For the molecule B1, the binding result in experiment [1] and in experiment [2] was “binds” each time.

Values taken from patent US20150361165A1 (SYDDANSK UNIVERSITET, published 2015).
